Assay: Near-infrared imaging of DIII-EphB4-EBD after conjugation with dye
Format: physicochemical
Details: after conjugation with near-infrared fluorescent dye, different concentrations, compared with Dye@DIII
Excerpt: After induction, the supernatant of the BMMY induced expression culture was collected and sequentially filtered through 0.8 µm, 0.45 µm, and 0.22 µm membranes. The filtrate was then purified using an Albupure affinity column. The purified product was subjected to SDS-PAGE and near-infrared imaging for identification. As shown in Fig. 19 (left), the final eluate contained a highly purified product (indicated by the red dashed box).

B1: DIII-EphB4-EBD: fusion protein of albumin DIII and EphB4 ephrin-binding domain (SEQ ID NO: 14), tested after conjugation with near-infrared fluorescent dye (conjugate)
chain: VEEPQNLIKQNCELFEQLGEYKFQNALLVRYTKKVPQVSTPTLVEVSRNLGKVGSKCCKHPEAKRMPCAEDYLSVVLNQLCVLHEKTPVSDRVTKCCTESLVNRRPCFSALEVDETYVPKEFNAETFTFHADICTLSEKERQIKKQTALVELVKHKPKATKEQLKAVMDDFFVEKCCKADDKETCFAEEGKKLVSQLGLGGGGSGGGGSEETLLNTKLETADLKWVTFPQVDGQWEELSGLDEEQHSVRTYEVCDVQRAPGQAHWLRTGWVPRRGAVHVYATLRFTMLECLSLPRAGRSCKETFTVFYYESDADTATALTPAWMENPYIKVDTVAAEHLTRKRPGAEATGKVNVKTLRLGPLSKAGFYLAFQDQGACMALLSLHLFYKKCAQLTV
modifications: near-infrared fluorescent dye conjugated
In the case of B1, the fluorescence characteristics is reported as “fluorescence characteristics consistent with those of the original DIII”.

— patent publication EP4803885A1, “PROBE AND USE THEREOF IN IMAGING AND THERAPY” (priority 2023, dated 2025)
